Key:
[1] = molecular target: T1, 4H883-bN; experiment: two-hybrid library CCNG1;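 further: natural log of median RNA to DNA barcode read ratio; higher means stronger binding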
T1 chain: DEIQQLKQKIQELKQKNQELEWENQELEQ

[2] = molecular target: T2, 4H908-bN; experiment: two-hybrid library CCNG1;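 further: natural log of median RNA to DNA barcode read ratio; higher means stronger binding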
T2 chain: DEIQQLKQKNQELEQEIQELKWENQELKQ

[3] = molecular target: T3, 4H918-bN; experiment: two-hybrid library CCNG1;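 further: natural log of median RNA to DNA barcode read ratio; higher means stronger binding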
T3 chain: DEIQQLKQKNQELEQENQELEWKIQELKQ

[4] = molecular target: T4, 4H953-bN; experiment: two-hybrid library CCNG1;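 further: natural log of median RNA to DNA barcode read ratio; higher means stronger binding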
T4 chain: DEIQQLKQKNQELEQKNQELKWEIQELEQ

[5] = molecular target: T5, 4H967-bN; experiment: two-hybrid library CCNG1
T5 chain: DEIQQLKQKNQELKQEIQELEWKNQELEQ

[6] = molecular target: T6, 4H3165-AA; experiment: two-hybrid library CCmax
T6 chain: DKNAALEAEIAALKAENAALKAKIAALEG

[7] = molecular target: T7, 4H3381-AA; experiment: two-hybrid library CCmax; conditions: mean of both orientations
T7 chain: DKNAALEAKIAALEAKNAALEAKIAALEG

[8] = molecular target: T8, 4H3395-AA; experiment: two-hybrid library CCmax; conditions: mean of both orientations
T8 chain: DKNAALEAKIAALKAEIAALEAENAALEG

[9] = molecular target: T9, 4H3410-AA; experiment: two-hybrid library CCmax; conditions: mean of both orientations
T9 chain: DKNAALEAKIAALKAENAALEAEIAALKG

[10] = molecular target: T10, 4H3590-AA; experiment: two-hybrid library CCmax; conditions: mean of both orientations
T10 chain: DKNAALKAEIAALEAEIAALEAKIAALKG

[11] = molecular target: T11, 4H3697-AA; experiment: two-hybrid library CCmax; conditions: mean of both orientations
T11 chain: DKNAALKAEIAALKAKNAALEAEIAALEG

[12] = molecular target: T12, 4H3753-AA; experiment: two-hybrid library CCmax; conditions: mean of both orientations
T12 chain: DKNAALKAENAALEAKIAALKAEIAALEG

[13] = molecular target: T13, 4H3865-AA; experiment: two-hybrid library CCmax; conditions: mean of both orientations
T13 chain: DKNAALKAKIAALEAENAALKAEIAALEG

[14] = molecular target: T14, 4H458-AA; experiment: two-hybrid library CCmax; conditions: mean of both orientations
T14 chain: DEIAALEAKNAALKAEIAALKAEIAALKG

[15] = molecular target: T15, 4H485-AA; experiment: two-hybrid library CCmax; conditions: mean of both orientations
T15 chain: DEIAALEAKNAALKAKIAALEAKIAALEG

[16] = molecular target: T16, 4H536-AA; experiment: two-hybrid library CCmax; conditions: mean of both orientations
T16 chain: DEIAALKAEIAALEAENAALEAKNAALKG

[17] = molecular target: T17, 4H570-AA; experiment: two-hybrid library CCmax; conditions: mean of both orientations
T17 chain: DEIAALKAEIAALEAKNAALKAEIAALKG

[18] = molecular target: T18, 4H629-AA; experiment: two-hybrid library CCmax; conditions: mean of both orientations
T18 chain: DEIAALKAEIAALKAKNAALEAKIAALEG

[19] = molecular target: T19, 4H710-AA; experiment: two-hybrid library CCmax; conditions: mean of both orientations
T19 chain: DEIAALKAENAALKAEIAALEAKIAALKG

[20] = molecular target: T20, 4H745-AA; experiment: two-hybrid library CCmax; conditions: mean of both orientations
T20 chain: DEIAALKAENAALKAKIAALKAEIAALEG

[21] = molecular target: T21, 4H797-AA; experiment: two-hybrid library CCmax; conditions: mean of both orientations
T21 chain: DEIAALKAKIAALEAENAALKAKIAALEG

[22] = molecular target: T22, 4H850-AA; experiment: two-hybrid library CCmax; conditions: mean of both orientations
T22 chain: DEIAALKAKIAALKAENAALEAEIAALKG

[23] = molecular target: T23, 4H891-AA; experiment: two-hybrid library CCmax; conditions: mean of both orientations
T23 chain: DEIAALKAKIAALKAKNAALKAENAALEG

[24] = molecular target: T24, 4H909-AA; experiment: two-hybrid library CCmax; conditions: mean of both orientations
T24 chain: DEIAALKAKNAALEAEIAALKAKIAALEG

[25] = molecular target: T25, 4H930-AA; experiment: two-hybrid library CCmax; conditions: mean of both orientations
T25 chain: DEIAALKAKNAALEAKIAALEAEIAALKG

[26] = molecular target: T26, 4H94-AA; experiment: two-hybrid library CCmax; conditions: mean of both orientations
T26 chain: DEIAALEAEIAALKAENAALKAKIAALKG

B1: 4H883-bN (peptide)
chain: DEIQQLKQKIQELKQKNQELEWENQELEQ
Question: For B1, which interaction score [1] is on record?
Answer: -1.15

Question: And the interaction score [2]?
Answer: -1.19

Question: What about the interaction score [3] of the same binder?
Answer: -0.986

Question: What about the interaction score [4] of the same binder?
Answer: -1.82

Question: What about the interaction score [5] of the same binder?
Answer: -0.861

B2: 4H3165-AA (peptide)
chain: DKNAALEAEIAALKAENAALKAKIAALEG
Question: What does the source list for B2?
Answer: interaction score [6]: 1.88; interaction score [7]: -1.72; interaction score [8]: -1.37; interaction score [9]: -0.394; interaction score [10]: -0.944; interaction score [11]: -0.699; interaction score [12]: -1.55; interaction score [13]: -0.353; interaction score [14]: -1.24; interaction score [15]: -1.05; interaction score [16]: -1.27; interaction score [17]: -1.57; interaction score [18]: -0.975; interaction score [19]: -1.07; interaction score [20]: -0.851; interaction score [21]: -0.547; interaction score [22]: -0.685; interaction score [23]: -1.63; interaction score [24]: -1.43; interaction score [25]: -1.79; interaction score [26]: 0.996

Source: PMC10397247
